Source: the supplement of paper PMC9732359
± gives the uncertainty stated by the source.

Assay: protein stability index of a GFP-peptide fusion (yeast GPS) (PSI 1-4); higher = more stable; sorted into four equal gates, so the index is relative within each strain
In short: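 Tiled yeast protein peptides of 17 residues were each joined downstream of GFP, on plasmids that also express Cherry. The pooled library was maintained in yeast, and mid-log cultures in leucine-free medium were sorted into four equal gates on the GFP/Cherry ratio. Plasmids from every gate were amplified by PCR and sequenced on Illumina, with barcodes linking reads to strains. The protein stability index of a peptide is its gate-number-weighted read frequency summed over the gates.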

| Sequence | protein stability index (doa10∆) | protein stability index (pdr5∆) | protein stability index (san1∆) | protein stability index (ubr1∆) |
| --- | --- | --- | --- | --- |
| QRSKKIQPTAKVVYIQR [DIS3] | 2.23 ± 0.27 | 2.56 ± 0.22 | 2.92 ± 0.17 | – |
| QRVFDETEQEYSPSNEI [YDL116W/NUP84] | 3.28 ± 0.067 | 3.46 ± 0.069 | 3.21 ± 0.058 | 3.29 ± 0.043 |
| QSDFCLSWCPSRFSPEK [YGL100W/SEH1] | 3.09 ± 0.11 | 3.02 ± 0.19 | – | – |
| QSGSNSGNNSKKRKNKS [ROX3] | 2.96 ± 0.17 | 3.09 ± 0.097 | 3.02 ± 0.095 | 3.15 ± 0.066 |
| QSISNENDVKPISIEAP [SWI3] | 2.55 ± 0.042 | 2.34 ± 0.044 | 2.42 ± 0.052 | 2.32 ± 0.037 |
| QSISQNSSSSTPNTNSN [SWI1] | 2.73 ± 0.055 | 2.8 ± 0.049 | 2.9 ± 0.051 | 2.82 ± 0.048 |
| QSKEILKGLLQELKADS [SRP72] | 2.36 ± 0.17 | 2.13 ± 0.27 | 2.75 ± 0.096 | 2.6 ± 0.11 |
| QSLANIQYVTYLLTQQQ [SOH1] | 2.23 ± 0.048 | 2.4 ± 0.045 | 2.19 ± 0.047 | 2.41 ± 0.033 |
| QSLELMIYDDAHEISQG [BRR2] | 2.73 ± 0.04 | 2.92 ± 0.037 | 2.86 ± 0.037 | 3.02 ± 0.035 |
| QSQPIANQSATSTPPPP [SNF5] | 2.82 ± 0.044 | 2.66 ± 0.037 | 2.61 ± 0.038 | 2.63 ± 0.034 |
| QSRRYNLRRHSDIVLDK [SIN4] | 3.07 ± 0.05 | 3.21 ± 0.034 | 3.131 ± 0.028 | 3.14 ± 0.035 |
| QTFEAKLHFKDTKPFLN [NUT1] | 2.4 ± 0.074 | 2.87 ± 0.12 | 2.62 ± 0.059 | 2.67 ± 0.043 |
| QTGTKPVLKKKAAFLGS [COR1] | 2.99 ± 0.064 | 3.14 ± 0.085 | 3.04 ± 0.076 | 3.16 ± 0.058 |
| QTHPDTGISQKSMSILN [HTB1] | 3.04 ± 0.056 | 3.01 ± 0.069 | 3.11 ± 0.06 | 2.72 ± 0.068 |
| QTQEFFLSSFDDVLQTI [YJL039C/NUP192] | 2.65 ± 0.046 | 2.27 ± 0.048 | 2.32 ± 0.047 | 2.51 ± 0.034 |
| QTSLVRMFEKNVMLNIY [SKI6] | – | 3.17 ± 0.11 | 3.29 ± 0.13 | 3.12 ± 0.076 |
| QVIFEIFEISLQRKDYT [YML103C/NUP188] | 2 ± 0.053 | 2.19 ± 0.056 | 2.51 ± 0.069 | 2.84 ± 0.061 |
| QVKVKGQLGEMAKCLDN [YCS4] | 3.25 ± 0.11 | 3.17 ± 0.13 | 3.19 ± 0.066 | 2.73 ± 0.076 |
| QVNGNIRKVSNDRESVL [SMC3] | 3.12 ± 0.15 | 1.88 ± 0.079 | 1.92 ± 0.083 | 2.18 ± 0.056 |
| QVSKKLSSIEASLKIKN [SMC3] | 1.67 ± 0.069 | 1.7 ± 0.085 | 2.44 ± 0.12 | 2.27 ± 0.08 |

| Sequence | protein stability index (doa10∆) | protein stability index (pdr5∆) | protein stability index (san1∆) | protein stability index (ubr1∆) |
| --- | --- | --- | --- | --- |
| QVVTDYNILGNLGIPKI [SSN2] | 2.51 ± 0.069 | 2.96 ± 0.072 | 2.37 ± 0.1 | 2.27 ± 0.06 |
| QWNKLTSFDIKREGRNE [POP6] | 3.31 ± 0.3 | – | – | – |
| QYDFKAVLEENDENDDE [RPN14] | 3.04 ± 0.11 | 3.24 ± 0.075 | 3.05 ± 0.076 | 2.89 ± 0.055 |
| QYGYSGSSAGMNGRSLT [SNF6] | 3.14 ± 0.07 | 3.11 ± 0.061 | 3.17 ± 0.046 | 3.1 ± 0.042 |
| QYNIPPEREVLVRELYQ [RRP6] | 2.52 ± 0.061 | 2.15 ± 0.089 | 2.37 ± 0.14 | 2.17 ± 0.083 |
| RAEAKAQGVAVQLKRQP [RPL21A] | 2.75 ± 0.096 | 2.19 ± 0.08 | 1.71 ± 0.12 | 2.46 ± 0.11 |
| RAGKYELVKSYSWLLFE [YJR042W/NUP85] | 1.62 ± 0.11 | 1.78 ± 0.08 | 1.18 ± 0.14 | 1.33 ± 0.062 |
| RAHRIGQKNEVRILRLI [SNF2] | 2.26 ± 0.048 | 1.79 ± 0.051 | 2.03 ± 0.058 | 2.23 ± 0.044 |
| RAKPVTNSSILLGKILP [RRP6] | 2.2 ± 0.074 | 2.14 ± 0.077 | 2.27 ± 0.12 | 2.39 ± 0.13 |
| RALYTPFLLMELHKKLV [YDL116W/NUP84] | 1.82 ± 0.094 | 1.45 ± 0.087 | 1.29 ± 0.22 | 1.26 ± 0.13 |
| RAPKVIHGQDFQFFPKE [ISW2] | 2.56 ± 0.068 | 2.47 ± 0.069 | 3.17 ± 0.065 | 2.83 ± 0.052 |
| RARVKAFPKDDRSKPVA [RPL3] | 2.85 ± 0.1 | 3.12 ± 0.1 | 3.4 ± 0.047 | 3.15 ± 0.083 |
| RAVFLFRCKETHSYNFM [RPC82] | 2.19 ± 0.058 | 2.02 ± 0.084 | 1.98 ± 0.091 | 2.47 ± 0.063 |
| RAVGGEVGASAALAPKI [RPL12A] | 3.37 ± 0.14 | 3.21 ± 0.17 | 1.86 ± 0.18 | 3.2 ± 0.1 |
| RAYLSHSNRCIVFSKKE [CSN12] | 1.41 ± 0.075 | 1.56 ± 0.062 | 1.13 ± 0.15 | 1.15 ± 0.036 |
| RCLVAVIQQDKYQKALH [SRP72] | 2.46 ± 0.2 | 2.23 ± 0.07 | 1.85 ± 0.1 | 2.09 ± 0.13 |
| RDDLFVRNLQGIQEVVH [NUT1] | 2.9 ± 0.09 | 3.2 ± 0.094 | 3.15 ± 0.073 | 3.23 ± 0.068 |
| RDLILKKGEYARFKSKD [SMC3] | 2.81 ± 0.17 | 2.72 ± 0.18 | 2.65 ± 0.21 | 2.77 ± 0.076 |
| REDLNKAEYVDQYDAER [RPO31] | 3.15 ± 0.1 | 3.11 ± 0.11 | 3.33 ± 0.092 | 3.34 ± 0.083 |
| REFLKVDQEMLYEIILA [SKP1] | 2.81 ± 0.066 | 2.85 ± 0.065 | 2.86 ± 0.096 | 2.96 ± 0.051 |
